According to the supplement of paper PMC10065799, “High-throughput profiling of sequence recognition by tyrosine kinases and SH2 domains using bacterial peptide display” (eLife, 2023):

Tests used:
[1] = tested on: AncSZ; assay: phosphorylation enrichment, bacterial display (enrichment ratio); higher = better substrate or ligand; peptides without Tyr show the background
[2] = molecular target: EPHB1 (UniProt P54762); assay: as above
[3] = molecular target: EPHB2 (UniProt P29323); assay: as above
Chain of EPHB2 (P29323 whole entry, looked up): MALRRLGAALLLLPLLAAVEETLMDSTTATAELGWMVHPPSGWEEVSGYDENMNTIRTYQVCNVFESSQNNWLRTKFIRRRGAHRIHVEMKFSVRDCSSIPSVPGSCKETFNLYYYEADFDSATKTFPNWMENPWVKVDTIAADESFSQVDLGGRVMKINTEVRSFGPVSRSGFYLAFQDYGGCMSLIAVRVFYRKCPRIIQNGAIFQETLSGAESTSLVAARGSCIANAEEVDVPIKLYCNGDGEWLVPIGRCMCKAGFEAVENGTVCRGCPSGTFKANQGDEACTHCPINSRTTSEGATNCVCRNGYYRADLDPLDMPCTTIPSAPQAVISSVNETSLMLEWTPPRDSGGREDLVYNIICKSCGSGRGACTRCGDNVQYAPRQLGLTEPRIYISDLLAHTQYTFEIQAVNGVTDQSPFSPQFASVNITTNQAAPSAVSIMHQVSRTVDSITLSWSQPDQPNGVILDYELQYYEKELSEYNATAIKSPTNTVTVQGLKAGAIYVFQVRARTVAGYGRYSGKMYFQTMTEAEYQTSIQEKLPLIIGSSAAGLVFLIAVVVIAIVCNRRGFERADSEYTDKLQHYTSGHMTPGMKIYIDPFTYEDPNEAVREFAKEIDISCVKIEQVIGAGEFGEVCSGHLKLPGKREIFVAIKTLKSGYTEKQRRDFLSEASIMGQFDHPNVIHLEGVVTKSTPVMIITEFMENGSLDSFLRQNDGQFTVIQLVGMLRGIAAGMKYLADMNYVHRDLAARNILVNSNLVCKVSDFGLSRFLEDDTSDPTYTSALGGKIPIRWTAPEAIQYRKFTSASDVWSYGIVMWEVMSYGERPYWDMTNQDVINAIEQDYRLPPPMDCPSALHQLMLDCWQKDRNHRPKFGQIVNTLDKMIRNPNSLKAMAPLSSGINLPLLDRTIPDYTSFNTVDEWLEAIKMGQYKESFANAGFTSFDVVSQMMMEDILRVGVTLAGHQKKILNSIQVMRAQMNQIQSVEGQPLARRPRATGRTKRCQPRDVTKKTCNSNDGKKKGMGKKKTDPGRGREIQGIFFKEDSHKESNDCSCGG

[4] = molecular target: FGFR1 (UniProt P11362); assay: as above
Chain of FGFR1 (P11362 whole entry, looked up): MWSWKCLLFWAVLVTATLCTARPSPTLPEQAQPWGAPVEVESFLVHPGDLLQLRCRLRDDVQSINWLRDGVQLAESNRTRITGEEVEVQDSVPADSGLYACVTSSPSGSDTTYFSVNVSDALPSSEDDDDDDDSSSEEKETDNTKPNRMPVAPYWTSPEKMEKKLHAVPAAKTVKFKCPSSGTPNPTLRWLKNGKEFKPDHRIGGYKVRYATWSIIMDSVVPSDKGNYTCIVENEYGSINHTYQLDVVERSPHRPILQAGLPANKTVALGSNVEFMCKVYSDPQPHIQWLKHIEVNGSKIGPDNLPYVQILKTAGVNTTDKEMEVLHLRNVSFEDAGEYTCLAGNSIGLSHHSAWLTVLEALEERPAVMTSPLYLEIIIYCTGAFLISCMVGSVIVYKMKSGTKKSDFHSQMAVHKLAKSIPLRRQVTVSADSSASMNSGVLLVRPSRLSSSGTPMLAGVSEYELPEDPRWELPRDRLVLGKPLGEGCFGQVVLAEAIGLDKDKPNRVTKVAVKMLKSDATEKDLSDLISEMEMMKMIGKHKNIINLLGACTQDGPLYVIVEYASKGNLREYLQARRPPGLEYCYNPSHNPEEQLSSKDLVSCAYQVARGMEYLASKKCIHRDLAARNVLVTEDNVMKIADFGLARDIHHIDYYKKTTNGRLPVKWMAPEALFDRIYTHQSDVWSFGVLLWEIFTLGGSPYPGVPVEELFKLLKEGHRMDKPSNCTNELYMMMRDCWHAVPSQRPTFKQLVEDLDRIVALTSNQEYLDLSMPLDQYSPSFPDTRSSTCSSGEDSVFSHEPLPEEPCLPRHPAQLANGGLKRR

[5] = molecular target: FGFR3 (UniProt P22607); assay: as above
[6] = tested on: Fer (mouse); assay: as above
[7] = molecular target: Fes (UniProt P07332); assay: as above
Chain of Fes (P07332 whole entry, looked up): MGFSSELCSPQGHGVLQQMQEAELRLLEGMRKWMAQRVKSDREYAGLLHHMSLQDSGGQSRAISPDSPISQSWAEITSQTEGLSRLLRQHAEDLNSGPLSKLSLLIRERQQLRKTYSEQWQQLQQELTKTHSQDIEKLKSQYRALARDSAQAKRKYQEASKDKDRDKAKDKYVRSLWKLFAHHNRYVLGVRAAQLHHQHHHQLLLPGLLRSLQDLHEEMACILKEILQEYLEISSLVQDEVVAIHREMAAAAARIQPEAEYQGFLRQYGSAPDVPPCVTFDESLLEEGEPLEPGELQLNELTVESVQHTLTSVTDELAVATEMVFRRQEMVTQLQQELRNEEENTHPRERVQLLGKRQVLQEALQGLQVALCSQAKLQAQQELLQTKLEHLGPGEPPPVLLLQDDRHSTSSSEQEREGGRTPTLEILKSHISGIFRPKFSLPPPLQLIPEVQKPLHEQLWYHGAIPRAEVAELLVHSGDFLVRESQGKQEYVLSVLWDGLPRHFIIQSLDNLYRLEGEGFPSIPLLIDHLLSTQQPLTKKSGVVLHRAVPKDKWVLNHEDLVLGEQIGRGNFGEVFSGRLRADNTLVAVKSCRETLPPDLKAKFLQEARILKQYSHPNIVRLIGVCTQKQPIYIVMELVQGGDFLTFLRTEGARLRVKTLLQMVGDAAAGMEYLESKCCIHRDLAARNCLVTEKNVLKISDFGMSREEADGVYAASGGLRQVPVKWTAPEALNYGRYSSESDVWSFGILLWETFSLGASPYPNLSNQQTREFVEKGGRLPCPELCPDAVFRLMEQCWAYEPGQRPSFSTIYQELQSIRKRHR

[8] = molecular target: Fyn (UniProt P06241); assay: as above
Chain of Fyn (P06241 whole entry, looked up): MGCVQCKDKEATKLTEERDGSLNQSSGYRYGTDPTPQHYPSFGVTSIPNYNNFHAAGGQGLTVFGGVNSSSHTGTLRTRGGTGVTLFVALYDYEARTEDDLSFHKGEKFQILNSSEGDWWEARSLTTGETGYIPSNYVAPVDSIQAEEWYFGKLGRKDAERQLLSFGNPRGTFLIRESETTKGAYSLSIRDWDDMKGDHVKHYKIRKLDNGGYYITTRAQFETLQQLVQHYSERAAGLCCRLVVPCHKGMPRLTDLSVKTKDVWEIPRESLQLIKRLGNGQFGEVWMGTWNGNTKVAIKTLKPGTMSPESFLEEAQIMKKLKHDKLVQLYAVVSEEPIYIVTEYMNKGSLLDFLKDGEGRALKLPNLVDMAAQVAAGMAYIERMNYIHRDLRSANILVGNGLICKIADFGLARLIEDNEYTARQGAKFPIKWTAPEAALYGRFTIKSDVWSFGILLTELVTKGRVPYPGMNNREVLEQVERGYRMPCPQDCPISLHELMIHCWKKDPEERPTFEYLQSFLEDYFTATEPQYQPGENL

[9] = molecular target: Hck (UniProt P08631); assay: as above
Chain of Hck (P08631 whole entry, looked up): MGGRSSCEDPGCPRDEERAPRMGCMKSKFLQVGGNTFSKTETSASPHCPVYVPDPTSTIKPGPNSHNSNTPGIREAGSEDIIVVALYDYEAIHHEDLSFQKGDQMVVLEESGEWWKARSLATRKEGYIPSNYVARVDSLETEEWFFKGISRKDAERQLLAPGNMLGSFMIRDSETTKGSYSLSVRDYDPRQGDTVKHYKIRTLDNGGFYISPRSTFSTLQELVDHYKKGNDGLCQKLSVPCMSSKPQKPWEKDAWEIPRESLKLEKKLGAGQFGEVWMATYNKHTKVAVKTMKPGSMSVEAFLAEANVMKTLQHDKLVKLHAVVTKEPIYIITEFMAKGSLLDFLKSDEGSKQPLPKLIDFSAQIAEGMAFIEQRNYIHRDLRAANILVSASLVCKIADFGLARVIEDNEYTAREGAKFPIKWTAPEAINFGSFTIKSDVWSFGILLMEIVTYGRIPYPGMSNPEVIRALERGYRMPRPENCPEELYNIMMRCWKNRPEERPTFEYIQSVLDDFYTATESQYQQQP

[10] = molecular target: Jak2 (UniProt O60674); assay: as above
[11] = molecular target: MERTK (UniProt Q12866); assay: as above
[12] = tested on: c-Abl (mouse); assay: as above
[13] = tested on: c-Src; assay: as above
[14] = molecular target: Grb2 SH2 (UniProt P62993); assay: SH2 binding enrichment of the phosphorylated peptide, bacterial display (enrichment ratio); higher = better substrate or ligand; peptides without Tyr show the background
Chain of Grb2 SH2 (P62993 whole entry, looked up): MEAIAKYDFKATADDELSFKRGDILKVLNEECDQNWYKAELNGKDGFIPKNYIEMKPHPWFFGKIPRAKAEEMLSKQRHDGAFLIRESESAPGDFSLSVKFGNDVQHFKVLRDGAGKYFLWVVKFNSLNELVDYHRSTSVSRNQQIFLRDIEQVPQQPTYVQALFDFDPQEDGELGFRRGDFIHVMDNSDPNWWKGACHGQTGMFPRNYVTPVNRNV

[15] = molecular target: SHP2-C SH2; assay: as above
[16] = molecular target: c-Src SH2; assay: as above
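For SH2 binding enrichment of the phosphorylated peptide, bacterial display in this document: peptide library displayed on the E. coli surface as eCPX fusions, selected cells deep-sequenced, score is each peptide's frequency after selection divided by its frequency in the input.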
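For phosphorylation enrichment, bacterial display in this document: 11-residue human phosphosite peptides and single-mutation variants displayed on the E. coli surface, counted by deep sequencing, each peptide's frequency after selection divided by its frequency in the unselected input library; frequency after pTyr selection over input frequency; kinase dosed for 20-30% of maximal phosphorylation in three min.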

Chain of EPHB1 (P54762 whole entry, looked up): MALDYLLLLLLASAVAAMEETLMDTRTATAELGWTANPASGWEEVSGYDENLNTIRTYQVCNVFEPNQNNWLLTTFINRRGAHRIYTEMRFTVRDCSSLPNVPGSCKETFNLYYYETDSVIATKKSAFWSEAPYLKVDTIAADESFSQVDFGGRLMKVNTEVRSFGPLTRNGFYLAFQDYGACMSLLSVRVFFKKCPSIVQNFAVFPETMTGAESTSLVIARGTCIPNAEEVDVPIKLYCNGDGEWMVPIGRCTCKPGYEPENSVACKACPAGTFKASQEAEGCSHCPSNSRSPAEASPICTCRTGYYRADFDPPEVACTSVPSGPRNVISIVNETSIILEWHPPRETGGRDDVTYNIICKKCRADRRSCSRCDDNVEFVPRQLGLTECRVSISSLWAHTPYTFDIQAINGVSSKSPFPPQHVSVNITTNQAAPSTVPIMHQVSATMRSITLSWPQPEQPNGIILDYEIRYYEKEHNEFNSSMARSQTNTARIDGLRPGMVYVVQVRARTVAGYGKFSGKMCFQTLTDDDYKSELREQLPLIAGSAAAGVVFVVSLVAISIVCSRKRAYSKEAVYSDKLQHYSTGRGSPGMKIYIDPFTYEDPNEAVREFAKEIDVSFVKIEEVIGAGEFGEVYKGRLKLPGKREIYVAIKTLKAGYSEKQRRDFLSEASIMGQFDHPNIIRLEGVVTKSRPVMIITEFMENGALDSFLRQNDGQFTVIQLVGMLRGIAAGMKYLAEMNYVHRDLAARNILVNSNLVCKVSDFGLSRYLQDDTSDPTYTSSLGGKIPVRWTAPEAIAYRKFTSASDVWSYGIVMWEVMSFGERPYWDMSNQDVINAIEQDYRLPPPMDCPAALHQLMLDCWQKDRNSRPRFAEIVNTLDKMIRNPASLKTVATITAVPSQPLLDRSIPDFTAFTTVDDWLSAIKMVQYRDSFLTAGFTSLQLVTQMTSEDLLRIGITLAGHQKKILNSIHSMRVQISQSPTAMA

Sequence	phosphorylation enrichment [1]	phosphorylation enrichment [2]	phosphorylation enrichment [3]	phosphorylation enrichment [4]	phosphorylation enrichment [5]	phosphorylation enrichment [6]	phosphorylation enrichment [7]	phosphorylation enrichment [8]	phosphorylation enrichment [9]	phosphorylation enrichment [10]	phosphorylation enrichment [11]	phosphorylation enrichment [12]	phosphorylation enrichment [13]	SH2 binding enrichment [14]	SH2 binding enrichment [15]	SH2 binding enrichment [16]
LEKRAYICAHP [ACAD9_Y611]	0.943	0.535	0.455	0.506	0.616	0.456	0.969	0.457	0.476	0.818	0.479	0.638	0.462	0.8	0.889	0.442
TGYRPYVCPFD [YY1_Y383_D380Y]	1.16	0.753	0.706	0.621	0.951	0.574	1.33	0.583	0.525	1.04	0.551	0.808	0.412	0.797	0.552	0.611
GSETPYMDRTP [ESS2_Y335_V336M]	0.662	0.571	0.413	0.431	0.413	0.363	0.715	0.344	0.365	0.499	0.365	0.424	0.454	1.05	0.788	0.49
FFRKFCNKSED [RYR1_Y4864_Y4864C]	0.981	0.515	0.381	0.49	0.6	0.417	1.04	0.589	0.603	0.779	0.518	0.677	0.442	0.992	0.75	0.513
ESVNTYLQTSP [NAT1_Y208_M205V]	0.874	0.538	0.838	0.386	0.577	0.49	0.887	0.441	0.556	0.799	0.588	0.655	0.589	0.762	0.527	0.395
RLNAIYQNNLT [GSR_Y158]	0.813	0.632	0.609	0.502	0.665	1.06	0.75	0.772	1.25	0.565	0.414	0.539	1.08	5.31	0.986	0.796
TFLRTYTDTMQ [TSPAN7_Y124_A127T]	0.68	0.527	0.491	0.486	0.497	0.501	0.76	0.464	0.403	0.687	0.391	0.69	0.425	0.995	0.454	0.591
QDGYSYLSRQM [LDLR_Y847_P848L]	0.71	0.517	0.467	0.995	0.664	0.562	0.94	0.305	0.646	0.784	1.26	0.541	0.464	0.747	2.11	8.2
RELGEYPLAEF [ALDH1A3_Y492_A493P_YF]	1.18	0.511	0.645	0.709	0.742	0.484	1.14	0.636	0.536	1.41	0.614	0.753	0.582	0.763	0.617	2.13
AHPGEYGAEAL [HBA1_Y25_A22P]	0.801	0.516	0.51	0.453	0.559	0.425	0.768	0.488	0.486	0.563	0.443	0.634	0.408	0.728	0.707	0.508
AVAFLYYKSIG [ADGRL4_Y301_V300L]	1.09	0.555	0.54	0.566	0.796	0.46	1.42	0.417	0.518	1.24	0.469	1.07	0.459	0.722	0.559	0.461
LLVVLYKYRCF [PSEN1_Y154_Y159F]	1.32	1.23	1.03	1.11	1.12	0.911	2.42	0.762	0.825	2.16	0.626	2.02	0.523	1.63	1.61	1.29
HSSPVYVGRVV [TGM2_Y219_R214H]	1.85	2.08	1.47	1.37	1.24	1.63	1.97	3	6.86	1	1.5	1.17	1.57	0.806	1.22	0.539
FGYPGYQCKHY [TIMP3_Y177_S179C]	0.718	0.295	0.519	0.46	0.59	0.374	0.806	0.477	0.44	0.588	0.704	0.473	0.428	0.916	0.876	0.805
PFFTSYPPSPD [GDAP2_Y491_YF]	0.907	0.438	0.447	0.557	0.644	0.507	1.15	0.498	0.356	1.14	0.629	0.901	0.588	0.739	0.568	0.471
NSNAAYEESHF [LRIF1_Y714_Q716E]	0.849	0.483	0.499	0.443	0.614	0.504	0.919	0.434	0.496	0.87	0.385	0.659	0.475	0.792	0.608	1.23
FDSPFYRDSLP [TSC1_Y508]	0.703	0.314	0.479	0.446	0.484	0.497	0.68	0.454	0.47	0.594	0.409	0.47	0.451	0.796	0.652	0.518

Sequence	phosphorylation enrichment [1]	phosphorylation enrichment [2]	phosphorylation enrichment [3]	phosphorylation enrichment [4]	phosphorylation enrichment [5]	phosphorylation enrichment [6]	phosphorylation enrichment [7]	phosphorylation enrichment [8]	phosphorylation enrichment [9]	phosphorylation enrichment [10]	phosphorylation enrichment [11]	phosphorylation enrichment [12]	phosphorylation enrichment [13]	SH2 binding enrichment [14]	SH2 binding enrichment [15]	SH2 binding enrichment [16]
YRASYYRKGGC [ALK_Y1283]	0.808	0.57	0.435	0.514	0.513	0.636	0.677	0.485	0.488	0.678	0.561	0.653	0.552	0.691	0.512	0.484
VKALKYKSMKI [ITGA11_Y1098_L1093V]	0.396	0.32	0.331	0.369	0.405	0.327	0.507	0.329	0.31	0.434	0.276	0.472	0.306	1.29	1.23	1.14
RNNTEYVRDIG [MUSK_Y577_I575T]	0.717	0.422	0.41	0.418	0.427	0.302	0.582	0.496	0.428	0.364	0.33	0.479	0.328	0.834	0.645	0.745
RSDSTYRMSAT [NHS_Y1532_S1531T]	0.587	0.411	0.556	0.558	0.637	0.587	0.581	0.528	0.436	0.709	0.335	0.697	0.632	0.769	0.472	0.341
SVVVPYEPAEV [TP53_Y220_P223A]	1.09	0.704	0.689	0.566	0.719	0.596	1.18	0.433	0.498	1.1	0.488	0.708	0.539	0.81	0.787	1.11
EFGFRYELVQY [UGGT2_Y1289_Y1285F]	1.11	0.573	0.507	0.512	0.617	0.611	1.14	0.329	0.429	1.05	0.338	0.627	0.393	0.566	0.501	1.39
KGNMFYENSFA [EGFR_Y113_R108K_YF]	0.76	0.503	0.463	0.332	0.535	1.8	0.705	0.412	0.449	0.751	0.484	0.645	0.45	19.5	1	2.98
FESPRYLQVRI [FANCA_Y488_H492R]	0.946	0.537	0.477	0.62	0.572	0.589	0.985	0.513	0.579	0.756	0.437	0.68	0.437	0.763	0.964	0.742
VTRANYFIRDE [GNAS_Y339_K338N]	0.705	0.541	0.449	0.412	0.621	0.45	0.736	0.474	0.388	0.845	0.45	0.712	0.494	0.984	0.8	0.434
SLDHPYEKPRK [INAVA_Y333]	0.741	0.349	0.467	0.339	0.421	0.388	0.63	0.371	0.39	0.436	0.329	0.423	0.352	0.852	0.683	1.77
RMSSSYPTGLA [ADM_Y52]	0.525	0.37	0.447	0.562	0.613	0.502	0.542	0.525	0.509	0.473	0.433	0.518	0.334	0.714	0.406	0.422
EFFENYIEELK [PARP4_Y218_F215Y_YF]	1.3	0.617	0.669	0.488	0.744	0.532	1.35	0.421	0.533	1.41	0.425	0.869	0.501	0.941	0.663	0.502
SMGHRYIEVFK [HNRNPF_Y82]	0.744	0.398	0.38	0.408	0.483	0.438	1	0.354	0.407	1.05	0.361	0.757	0.445	1.03	0.988	2.08
GRLPEYNTPIA [CCDC151_Y542_R545P]	0.704	0.515	0.432	0.388	0.397	0.317	0.643	0.442	0.325	0.662	0.407	0.716	0.463	0.807	0.479	0.841
KAESWYQTKYE [KRT75_Y342_E337K]	0.763	0.399	0.524	0.367	0.491	0.57	0.698	0.485	0.459	0.471	0.433	0.396	0.457	0.805	0.648	0.479
RSAGKYDVFFI [MECP2_Y120_L124F_YF]	1.03	0.651	0.773	1.02	1.53	0.519	1.09	0.678	0.642	1.38	0.722	0.796	0.751	1.28	0.794	1.11
